# Measured values published in the supplement of paper PMC10724198.
# ± gives the standard deviation of the averaged measurements.
# System: Saccharomyces cerevisiae
# Experiment: protein stability index of tFT-peptide fusion (C-terminal peptide) (PSI (0-1 scale)); higher = more stable (slower turnover)
# Settings: genetic background: wild type; temperature: 37 C
# Method: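 MPS profiling in S. cerevisiae of the tFT-X12 degron library: putative degron peptides plus stable controls, 12 aa, fused to the C-terminus of a sfGFP-mCherry timer. Cells are FACS-sorted into 8 mCherry/sfGFP bins and deep-sequenced. PSI runs from 0 (unstable) to 1 (stable). Backgrounds are wild type, das1Δ and doa10Δ at 30 °C, and wild type, das1Δ, cdc34-1 and cdc53-1 at 37 °C; 2-3 technical replicates each.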
# 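Note: PSI is a weighted mean of sequencing reads over stability bins, variants kept only with over 10 reads, mCherry proximal and sfGFP distal, peptide attached via GGGS linker.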
row,Sequence,protein stability index
1,SWWGDVVWFVVC,0.381 ± 0.0062
2,SYGNGIPIRMLH,0.422 ± 0.05
3,SYLPSHVYIFLL,0.129 ± 0.034
4,TFLCSSLALAVI,0.4789 ± 0.00054
5,TGYRYVGRFFVV,0.329 ± 0.011
6,TLCFRLSWVLLV,0.0672 ± 0.022
7,TLNKDILIIKCA,0.214 ± 0.049
8,TNFVVRLRFVLF,0.419 ± 0.011
9,TVRVVMLRLLFT,0.493 ± 0.018
10,VAFLWVAFCFSG,0.366 ± 0.021
11,VAIMSIWLVYML,0.4919 ± 0.0028
12,VALAVRVVVCGA,0.0779 ± 0.01
13,VAWCVWCWWWAV,0.0852 ± 0.013
14,VCLFWLFLWRIL,0.241 ± 0.016
15,VCLWVEVLIVLG,0.183 ± 0.0078
16,VCPWGYCSEWGF,0.7887 ± 0.006
17,VFCSVGVSLFFG,0.5118 ± 0.0026
18,VFFLFAVCSVLV,0.248 ± 0.04
19,VFFLRVHFWSFF,0.246 ± 0.02
20,VFFLVHFHLPMF,0.536 ± 0.03

row,Sequence,protein stability index
1,VFGFLVFYVCVR,0.248 ± 0.026
2,VFHMFGWCGGAR,0.7518 ± 0.0011
3,VFLFSLCIRLSR,0.248 ± 0.011
4,VFLVFSVWVVYR,0.343 ± 0.053
5,VFLVRTVTQISA,0.397 ± 0.016
6,VFRLFFLLVWLV,0.13 ± 0.021
7,VFRLLALLWRFF,0.42 ± 0.012
8,VFSLAFYLVLFF,0.418 ± 0.037
9,VFSRVLSVLLSA,0.457 ± 0.024
10,VFVGWVLCVVGG,0.2377 ± 0.002
11,VFWLLVAVLRYW,0.325 ± 0.013
12,VGVSVVMVVEVP,0.0384 ± 0.0064
13,VGVVLWWVVLMV,0.251 ± 0.0034
14,VGYHCIVGVIFL,0.512 ± 0.015
15,VIRFNSAPRFLV,0.236 ± 0.0043
16,VIWIRMISFFVW,0.346 ± 0.048
17,VIYNSALLLVRL,0.386 ± 0.01
18,VLAFFPLFFFLS,0.245 ± 0.0039
19,VLGARWHWIYIA,0.06742 ± 0.00037
20,VLGLYSLLLSFF,0.4532 ± 0.0012

row,Sequence,protein stability index
1,VLGRCWWIVSDL,0.755 ± 0.0049
2,VLISLVLLFRCW,0.332 ± 0.017
3,VLLMFFFRFSAL,0.624 ± 0.013
4,VLVFYFCFSFCS,0.273 ± 0.016
5,VLVLSFLYRMVK,0.436 ± 0.032
6,VLVSYAIVILYL,0.268 ± 0.026
7,VLVVLVVCRRAE,0.422 ± 0.0083
8,VLYLQCITSAGH,0.178 ± 0.0088
9,VMRMVWVLGVMC,0.35 ± 0.0091
10,VPSMSIVWCRVL,0.12 ± 0.005
11,VPSPWVFSLFLH,0.283 ± 0.016
12,VQFISLVCLFRF,0.448 ± 0.039
13,VQWPLLVVGCMG,0.361 ± 0.011
14,VSFRISAIFVCV,0.322 ± 0.045
15,VSPATFLFYFFF,0.5607 ± 0.00097
16,VTFCFLFVWFLV,0.345 ± 0.013
17,VTGFGVAIVCVT,0.364 ± 0.015
18,VVFFFKFFLLRL,0.325 ± 0.019
19,VVGLVSIVQVIM,0.493 ± 0.014
20,VVGRWGFVVECW,0.366 ± 0.0046

# System: Saccharomyces cerevisiae
# Experiment: as above
# Settings: genetic background: wild type; temperature: 30 C
row,Sequence,protein stability index
1,SWWGDVVWFVVC,0.282 ± 0.03
2,SYGNGIPIRMLH,0.329 ± 0.014
3,SYLPSHVYIFLL,0.128 ± 0.019
4,TFLCSSLALAVI,0.405 ± 0.042
5,TGYRYVGRFFVV,0.248 ± 0.01
6,TLCFRLSWVLLV,0.0528 ± 0.037
7,TLNKDILIIKCA,0.212 ± 0.0051
8,TNFVVRLRFVLF,0.366 ± 0.029
9,TVRVVMLRLLFT,0.418 ± 0.021
10,VAFLWVAFCFSG,0.276 ± 0.046
11,VAIMSIWLVYML,0.454 ± 0.0058
12,VALAVRVVVCGA,0.142 ± 0.041
13,VAWCVWCWWWAV,0.131 ± 0.047
14,VCLFWLFLWRIL,0.266 ± 0.0063
15,VCLWVEVLIVLG,0.209 ± 0.011
16,VCPWGYCSEWGF,0.759 ± 0.013
17,VFCSVGVSLFFG,0.411 ± 0.021
18,VFFLFAVCSVLV,0.152 ± 0.02
19,VFFLRVHFWSFF,0.2826 ± 0.0026
20,VFFLVHFHLPMF,0.455 ± 0.05

row,Sequence,protein stability index
1,VFGFLVFYVCVR,0.268 ± 0.0095
2,VFHMFGWCGGAR,0.764 ± 0.071
3,VFLFSLCIRLSR,0.204 ± 0.008
4,VFLVFSVWVVYR,0.318 ± 0.027
5,VFLVRTVTQISA,0.304 ± 0.017
6,VFRLFFLLVWLV,0.123 ± 0.014
7,VFRLLALLWRFF,0.325 ± 0.056
8,VFSLAFYLVLFF,0.343 ± 0.056
9,VFSRVLSVLLSA,0.386 ± 0.0071
10,VFVGWVLCVVGG,0.218 ± 0.045
11,VFWLLVAVLRYW,0.307 ± 0.06
12,VGVSVVMVVEVP,0.0948 ± 0.012
13,VGVVLWWVVLMV,0.241 ± 0.017
14,VGYHCIVGVIFL,0.524 ± 0.081
15,VIRFNSAPRFLV,0.213 ± 0.047
16,VIWIRMISFFVW,0.245 ± 0.015
17,VIYNSALLLVRL,0.391 ± 0.041
18,VLAFFPLFFFLS,0.2054 ± 0.002
19,VLGARWHWIYIA,0.111 ± 0.024
20,VLGLYSLLLSFF,0.337 ± 0.007

row,Sequence,protein stability index
1,VLGRCWWIVSDL,0.566 ± 0.19
2,VLISLVLLFRCW,0.408 ± 0.041
3,VLLMFFFRFSAL,0.523 ± 0.049
4,VLVFYFCFSFCS,0.205 ± 0.049
5,VLVLSFLYRMVK,0.376 ± 0.033
6,VLVSYAIVILYL,0.193 ± 0.002
7,VLVVLVVCRRAE,0.324 ± 0.032
8,VLYLQCITSAGH,0.246 ± 0.023
9,VMRMVWVLGVMC,0.299 ± 0.011
10,VPSMSIVWCRVL,0.213 ± 0.048
11,VPSPWVFSLFLH,0.242 ± 0.033
12,VQFISLVCLFRF,0.414 ± 0.013
13,VQWPLLVVGCMG,0.399 ± 0.028
14,VSFRISAIFVCV,0.343 ± 0.044
15,VSPATFLFYFFF,0.497 ± 0.017
16,VTFCFLFVWFLV,0.283 ± 0.048
17,VTGFGVAIVCVT,0.369 ± 0.084
18,VVFFFKFFLLRL,0.363 ± 0.026
19,VVGLVSIVQVIM,0.397 ± 0.041
20,VVGRWGFVVECW,0.3595 ± 0.00014
